Results on 1 substance are retold here after publication PMC12505970.

The target in the assay is FLAG-AuxB^W86A (S. aureus) (S. aureus). In words: co-IP; FLAG-tagged bait from S. aureus membranes solubilised in 1% DDM (PBS pH 7.4, NaCl), α-FLAG M2 magnetic beads at 4°C, washes with decreasing DDM, elution with 3×FLAG peptide; Coomassie-stained gel, bands identified by LC-MS.

For the substance “PknB (endogenous, S. aureus) (from UniProt A0A0H2XGG5 1-664) (natural protein)”, the ratio of PknB pulled down, AuxB^W86A against wild type (densitometry) was determined as 4.2 and the ratio of PknB pulled down, AuxB^W86A against wild type (peptide counts of PknB in the total eluate) was 5.
